From patent publication US20080139790A1 (ARANA THERAPEUTICS, published 2008)

T1: rat MOG (myelin-oligodendrocyte glycoprotein) (rat, UniProt Q63345 28-245)
T1 construct: mature; Not a purified protein: identified by the band size of about 25 kDa in a western blot of rat spinal cord lysate; also called antigen of M26; protein of size 25 kDa
T1 sequence (looked up): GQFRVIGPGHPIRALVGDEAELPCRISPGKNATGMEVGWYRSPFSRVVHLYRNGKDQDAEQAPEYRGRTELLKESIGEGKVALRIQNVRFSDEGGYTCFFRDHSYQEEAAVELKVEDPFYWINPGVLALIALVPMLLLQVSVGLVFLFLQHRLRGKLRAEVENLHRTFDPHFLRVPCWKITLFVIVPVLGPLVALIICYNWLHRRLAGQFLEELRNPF


What was measured:
[1] = target: T1, rat MOG (myelin-oligodendrocyte …); assay: western blot of rat spinal cord lysate, AB138 at 10 ug/mL, anti-human IgG HRP
Method: The ability of AB138 to retain binding to the antigen of M26, rat MOG (myelin-oligodendrocyte glycoprotein), was investigated by Western Blot. 130 mg of rat spinal cord (IMVS, Australia) was homogenized in 1.8 ml CelLytic M Cell Lysis Reagent (SIGMA, C2978) and incubated for 30 minutes at 4° C. Further homogenization was performed by drawing the lysate through a 27 g1/2 needle several times followed by centrifugation at 4° C. and 13000 g for 30 minutes. The pellet and supernatant was diluted into SDS-PAGE sample buffer (125 mM Tris-HCl pH 6.8, 5% SDS, 0.25% bromophenol blue, 25% glycerol). Along with this 200 μl CHOK1SV cells at 1×10⁶ viable cells per ml were spun down at 13000×g at 4° C. for 1 minute and resuspended in 200 μl CelLytic M Cell Lysis Reagent (SIGMA). Following centrifugation at 4° C. and 13000×g for 30 minutes the supernatant was mixed with the appropriate amount of SDS-PAGE sample buffer. All samples, along with a sample of molecular weight markers, were run on a 4-20% Novex pre-cast gel (Invitrogen, Australia) for 2 hours at 120V. Proteins were then transferred to PVDF (BioRad, Australia) using a western blot apparatus in 1× Tris-Glycine Buffer with 20% methanol (BioRad, Cat 161+-0771) at 4° C. at 250 mA for 2 hours. […] Following washing, bound antibody was detected using the ECL Western Blotting Analysis System, (Amersham Biosciences Cat: RPN2109). […]

[2] = target: T2, TNF-α (Peprotech Cat No: 300-01A) (UniProt P01375 77-233); assay: ELISA, TNF-α coated at 1 µg/mL, detection with anti-HIS HRP
T2 construct: Coated on the ELISA plate at 1 µg/mL
T2 sequence (P01375 77-233 limits assumed): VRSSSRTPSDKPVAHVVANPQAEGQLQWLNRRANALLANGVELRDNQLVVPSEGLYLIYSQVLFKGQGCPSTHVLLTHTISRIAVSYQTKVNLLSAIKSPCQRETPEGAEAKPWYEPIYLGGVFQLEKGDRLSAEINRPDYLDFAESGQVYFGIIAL
Method: TNF-α (Peprotech Cat No: 300-01A) was diluted to 1 μg/mL in carbonate coating buffer ([…] pH 9.6). 100 μL of this solution was added to a well of a 96 well plate and incubated at 4° C. overnight in a humidified container. The plate was then washed three times with wash buffer (0.01M PBS pH 7.2, 0.05% Tween-20) and then three times with 0.01M PBS pH 7.2. The wells were then blocked by adding 200 μL blocking buffer (1% w/v BSA in 0.01M PBS pH 7.2) to each well and incubating the plate at 25° C., in a humidified container, for 1 hour. Desalted domain antibody protein sample was diluted in antibody diluent (1% w/v BSA, 0.05% Tween-20 in 0.01M PBS pH 7.2) and added to the wells contain TNF-α and allowed to incubate for 1 hour at 25° C. The plate was then washed as previously described. 100 μL of Anti-HIS antibody HRP conjugate (Sigma-Aldrich, Australia Cat No: A7058) at 1:2000 in antibody diluent was used to detect bound domain antibody. Wells with antibody diluent only were used to assess background absorbance. After incubation at 25° C., in a humidified container, for 1 hour the plate washed again as previously described. 100 μL TMB substrate solution (Zymed, Cat No: 00-2023) was added to each well and the colour allowed to develop for 4 min. 100 μL of 1M HCl was added to terminate the colour development reaction and absorbance was determined at 450 nm (ref. 620 nm)

Binder	binding result [1]	binding result [2]
AB138 (antibody, human IgG1, kappa, V domains shown, Expressed in CHOK1SV cells, purified on Protein A; also called marmoset human fusion antibody; MOG specific marmoset derived antibody variable regions with human IgG1 / kappa constant regions) VH: QVQLVQSGAEVKKPGASVKVSCKASGYTFTSYAISWARQPPGQGLEWMGAFDPEYGSTTYAQKFQGRVTMTADTSTSTAYMELSSLRPEDTAVYYCARDVNFGNYFDYWGQGTLVTVSS VL: ELVMTQSPATLSLSPGERATVSCRAGQSVSYYLAWYQQKPGQAPRLLIYGASTRATGIPARFSGSRSGTDFTLTISSLEPEDFAVYYCQQYSSWPPTFGQGTKLEIKR	binds	–
CDR2-substituted domain antibody SEQ ID No 26 (other, not shown: 6xHIS tag introduced by vector pBAD/gIII) DIQMTQSPSSLSASGDRVTITCRASQSIDSYLHWYQQKPGKAPKLLIYAASNRASGVPSRFSGSGSGTDFTLTISSLQPEDFATYYCQQVVWRPFTFGQGTKVEIKR	–	binds
unsubstituted acceptor anti-TNFα domain antibody (SEQ ID No: 7) (other, Single variable domain (domain antibody, dAb) from Basran et al. WO 2004/081026, CDR2 SASELQS; also called acceptor domain antibody; not shown: 6xHIS tag from vector pBAD/gIII (detection was by anti-HIS antibody); its positi) DIQMTQSPSSLSASGDRVTITCRASQSIDSYLHWYQQKPGKAPKLLIYSASELQSGVPSRFSGSGSGTDFTLTISSLQPEDFATYYCQQVVWRPFTFGQGTKVEIKR	–	binds
CDR2-substituted domain antibody SEQ ID No 25 (other, Secretory signal peptide from the vector, expressed in E. coli periplasm; not shown: 6xHIS tag introduced by vector pBAD/gIII) DIQMTQSPSSLSASGDRVTITCRASQSIDSYLHWYQQKPGKAPKLLIYKVSNRASGVPSRFSGSGSGTDFTLTISSLQPEDFATYYCQQVVWRPFTFGQGTKVEIKR	–	binds
CDR2-substituted domain antibody SEQ ID No 29 (other, not shown: 6xHIS tag introduced by vector pBAD/gIII) DIQMTQSPSSLSASGDRVTITCRASQSIDSYLHWYQQKPGKAPKLLIYRVSNRASGVPSRFSGSGSGTDFTLTISSLQPEDFATYYCQQVVWRPFTFGQGTKVEIKR	–	binds

Next, values leading:

binding result [1]	binding result [2]	Binder
–	binds	CDR2-substituted domain antibody SEQ ID No 28 (other, not shown: 6xHIS tag introduced by vector pBAD/gIII) DIQMTQSPSSLSASGDRVTITCRASQSIDSYLHWYQQKPGKAPKLLIYYASFLQGGVPSRFSGSGSGTDFTLTISSLQPEDFATYYCQQVVWRPFTFGQGTKVEIKR
–	binds	CDR2-substituted domain antibody SEQ ID No 31 (other, not shown: 6xHIS tag introduced by vector pBAD/gIII) DIQMTQSPSSLSASGDRVTITCRASQSIDSYLHWYQQKPGKAPKLLIYDASSLQPGVPSRFSGSGSGTDFTLTISSLQPEDFATYYCQQVVWRPFTFGQGTKVEIKR
